In patent US9345682B2, “Inhibition of STAT3 signal transduction for human cancer therapy” (University of South Florida, priority 1999, dated 2016):
Non-standard residues stand in square brackets, D forms with d. No end group written: not given here. pY = N[C@@H](Cc1ccc(OP(=O)(O)O)cc1)C(=O)O

Legend:
STAT3 = biological target: T1, STAT3 (Homo sapiens, UniProt P40763); assay: Disruption of STAT3 DNA-binding activity in vitro by synthetic peptides; details: ne = no effect
T1 construct: made in house; host or cells: Sf9 insect cells co-infected with baculoviruses for STAT3 and Src or Fes (cell extracts)
T1 sequence (P40763 whole entry, species assumed): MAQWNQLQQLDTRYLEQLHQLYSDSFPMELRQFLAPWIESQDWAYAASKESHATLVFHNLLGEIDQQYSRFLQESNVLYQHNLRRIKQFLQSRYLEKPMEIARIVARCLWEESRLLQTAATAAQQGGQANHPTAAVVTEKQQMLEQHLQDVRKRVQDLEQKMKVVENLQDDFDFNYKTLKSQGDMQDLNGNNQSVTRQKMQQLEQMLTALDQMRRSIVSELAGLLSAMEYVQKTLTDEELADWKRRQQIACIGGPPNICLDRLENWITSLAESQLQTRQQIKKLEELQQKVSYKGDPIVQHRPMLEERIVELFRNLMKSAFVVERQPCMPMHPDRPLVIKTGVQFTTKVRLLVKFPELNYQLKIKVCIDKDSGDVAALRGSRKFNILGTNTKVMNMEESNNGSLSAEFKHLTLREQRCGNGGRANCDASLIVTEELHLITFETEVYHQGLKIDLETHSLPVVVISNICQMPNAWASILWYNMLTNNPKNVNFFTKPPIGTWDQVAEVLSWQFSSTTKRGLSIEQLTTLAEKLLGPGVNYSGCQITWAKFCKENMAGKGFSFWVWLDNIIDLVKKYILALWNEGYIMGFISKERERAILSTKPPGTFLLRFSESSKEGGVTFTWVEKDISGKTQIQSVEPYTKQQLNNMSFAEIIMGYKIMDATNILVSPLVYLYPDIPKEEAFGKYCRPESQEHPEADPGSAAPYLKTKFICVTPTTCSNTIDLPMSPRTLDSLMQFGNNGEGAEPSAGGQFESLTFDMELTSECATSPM
Text: A novel non-radioactive, 96-well plate based assay is used for measuring STAT3 DNA-binding activity (FIG. 30). In this high throughput assay, a biotinylated hSIE probe is used in place of the ^32P-labeled hSIE probe used for EMSA to detect binding of STAT3 dimers. The hSIE oligonucleotide is a high-affinity mutant of the original sis-inducible element in the C-fos gene promoter that binds STAT3. The biotinylated hSIE probe is immobilized onto a streptavidin-coated 96-well plate, permitting a large number of compounds and concentrations to be tested in a single experiment. The source of activated STAT3 is extracts derived from Sf9 insect cells co-infected with baculoviruses encoding STAT3 and either the Src or Fes tyrosine kinases. Using this baculovirus expression system, high levels of activated STAT3 dimers are produced as a result of phosphorylation by the co-expressed tyrosine kinases. Activated STAT3 is added to the 96-well plate in the presence or absence of the compounds to be screened. After incubation for 30 min with compounds, STAT3 dimers that bind to the biotinylated hSIE probe are detected with an anti-Stat3 primary antibody (Santa Cruz Biotechnology) followed by a horseradish-peroxidase conjugated secondary antibody. Immune complexes are detected by colorimetric conversion of the substrate, 3,3′,5,5′-tetramethylbenzidine (TMB) peroxidase, using a conventional ELISA plate reader. Epitope tagged versions of STAT3 expressed from baculoviruses have also been generated that are detected using the cognate primary antibodies. We find these anti-tag antibodies to be more sensitive and/or specific.
To facilitate these high throughput, 96-well plate assays, the screening is automated using an available Beckman 2000 Biotek robotics workstation coupled to an ELISA plate reader. The computer-programmed robotics workstation has multi-volume, multi-component mixing capability that greatly accelerates all of the high throughput assays. Inhibition of STAT3 DNA-binding activity in this assay is readily detected as a loss of signal relative to the controls without added compound. As a positive control and to establish the DNA-binding specificity, activated STAT3 is added in the presence of either excess free hSIE oligonucleotide for competition or a non-binding oligonucleotide, FIRE. […] As a negative control, extracts from IFNa-stimulated cells are used as a source of STAT1, which also binds the hSIE. Initial screens are performed at high concentrations of compounds (e.g., 100 uM), and active compounds are further tested in concentration-response studies.
A total of 19 synthetic peptides are tested based on the PY*LKTK sequence (Y*=phosphotyrosine) and their IC50 is determined in terms of disruption of STAT3 DNA-binding activity in vitro (Table 3).

Full length STAT3 = biological target: T2, Full length STAT3 (Homo sapiens, UniProt P40763); assay: Phage display panning, 12-mer peptide library, on full-length GST-Stat3; format: binding
T2 construct: Full-length GST-Stat3, immobilized to glutathione-Sepharose beads, is used to screen a display peptide library; made in house; host or cells: E. coli
T2 sequence (P40763 whole entry, species assumed): as above
Text: Phage display peptide libraries are used because of two powerful features. First, phage libraries generate an enormous diversity of peptides that can be subjected to affinity selection by panning. […] These combinatorial libraries are based on random short peptide sequences fused to a coat protein of bacteriophage, herein pIII of the filamentous coliphage MI3. Panning of the peptide library using an immobilized target, herein STAT3 fusion proteins bound onto beads, is used to select for peptide sequences that bind to STAT3. […] Peptide sequences that occur at elevated frequencies are good candidates for ST4T3-specific binding peptides. […] These cyclic peptides have the advantage of reducing entropic freedom, thereby potentially increasing binding specificity and affinity relative to linear peptides. Another variation on this approach is to combine “affinity maturation” with the phage display peptide library [Scott & Smith, 1990, Science, 249:386-390].
The GST-Stat3 fusion protein is purified on glutathione-Sepharose beads according to standard methods. The first library screened is obtained from a commercial source (New England Biolabs) and consists of random 12 amino acid sequences with a complexity of 1.9×10^9 independent transformants, each theoretically represented approximately 70 times in 1.4×10^11 phage particles. […] This is due to the inability of peptidases to cleave adjacent to proline residues in the peptide leader sequence, which is required for secretion. The titer of the original phage library after one round of amplification is 1.4×10^13 pfu/ml (plaque forming units per ml).
For panning phage with the STAT3 fusion protein, 50 ul of glutathione-Sepharose beads bound to purified GST-Stat3 fusion protein are washed with phosphate buffered saline (PBS). The beads are then incubated with 10 ul of phage suspension (1.4×10^11 virions) in 200 ul final volume of PBS for 30 min at room temperature with occasional mixing. The beads are gently pelleted in a microcentrifuge, and washed 10 times with 1 ml of PBS to remove unbound phage. Background of non-specifically bound phage is reduced by a variety of methods, including pre-blocking the beads with bovine serum albumin, pre-clearing the phage library with GST-glutathione-Sepharose beads, and washing the beads with increasing salt concentrations. Bound phage virions are eluted from the beads by incubation with a molar excess of glutathione for 30 min at room temperature. A small aliquot of the phage eluate is titered and the rest is amplified on the E. coli ER2537 host strain. Following amplification, the phage are purified by polyethylene glycol (PEG) precipitation and then the titer is determined again. Using 1-2×10^11 phage particles from the amplified eluate as input, the above binding and amplification steps are repeated a total of 3 to 4 times. After the final titering step, 40-100 isolated plaques are amplified for DNA sequencing to identify a consensus binding sequence. Sequence analysis is performed by automated sequencing on a Pharmacia ALF sequencer.
Full-length GST-Stat3, immobilized to glutathione-Sepharose beads, is used to screen a display peptide library containing 1.9×10^9 random 12-mer peptides positioned at the N-terminus of a minor coat protein (pIII) of the M13 filamentous bacteriophage. Based on their frequencies shown in Table 1, the five most promising peptides from a 12-mer peptide library that bind to full-length STAT3 are listed.

[1] = system: Bcl-xL overexpressing U266 cells; assay: Drug-induced apoptosis in U266 cells overexpressing Bcl-xL; format: cell-based, human; details: stable U266 clones overexpressing Bcl-xL; 24 h for melphalan and mitoxantrone
Experimental: FIG. 23 Enforced Overexpression of Bcl-x Confers Resistance to Chemotherapy. Panel A: U266 cells are transfected with a CMV expression vector encoding Bcl-x, tagged with the FLAG epitope. Several stable, independent clones overexpressing Bcl-xL, as well as empty vector controls (Neo), are isolated and analyzed by Western blot with antibodies to Bcl-xL, or the FLAG epitope tag. B: The indicated cell lines are incubated with either melphalan (LPAM) or mitoxantrone for 24 h, and apoptosis is monitored by AnnexinV-FITC staining and flow cytometry. Overexpression of Bcl-xL protects the cells from chemotherapy-induced apoptosis.
These Bcl-xL overexpressing cells are resistant to apoptosis induced by AG490, as predicted since the ectopic Bcl-xL is expressed from a CMV promoter and is thus independent of JAK-STAT signaling. […] These findings support one embodiment of the present invention, that Bcl-x confers resistance to chemotherapy-induced apoptosis, and therefore that inhibition of STAT3 signaling promotes chemotherapy-induced apoptosis.

U266 cells = assay: Fas-mediated apoptosis (Annexin V, flow cytometry) in U266 cells; format: cell-based, human; details: 500 ng/ml CH-11 or 100 ng/ml Fas ligand
Experimental: For surface detection of the Fas receptor, 10^6 cells are suspended in […] PBS with 2.5 mg/ml mouse IgM (Sigma) and […] UB2 antibody (MBL) or IgG1, isotype control serum (Dako). Following 30 min incubation at room temperature, cells are washed with PBS, and incubated in the dark for 30 min with goat anti-mouse Ig-FITC. Fluorescence is measured on a FACScan flow cytometer and analyzed using CellQuest software (Becton Dickinson). For cell cycle analysis, 10^6 cells are fixed in ice-cold ethanol for a minimum of 2 h, washed with PBS, and stained with 5 mg/ml propidium iodide (PI) and […] at 37° C. for 30 min prior to analysis by flow cytometry. […] Apoptosis is measured by staining with Annexin V-FITC (Clontech) and flow cytometry analysis. Fas-specific death is calculated as (% Annexin V positive cells in the CH-11 treated population)−(% Annexin V positive cells in the IgM control population). Programmed cell death in cells transfected with the bicistronic green fluorescent protein vectors (pIRES-EGFP or pIRES-Stat3b) is analyzed after staining with Annexin V-PE (Pharmingen) by two color flow cytometry analysis. Apoptotic morphology of DAPI-stained nuclei and green/red fluorescence is confirmed by fluorescence microscopy.

MPC11 tumors = assay: MPC11 myeloma tumor growth in vivo; set-up: species or system BALB/c mice; details: MPC11 tumor-bearing mice, rIL-12 alone, 200 ng every second day
Experimental: Mice and tumor formation in vivo. Six- to eight-week old female BALB/c mice are obtained from the National Cancer Institute (Frederick, Md.). Cohorts of 3-5 mice per group are used for these experiments. Mice are shaved on the right flank and injected subcutaneously (s.c.) with 5×10^5 of either MOPC or MPC11 cells in […] of PBS to induce tumors.
In vivo treatment with AG-490 and IL-12. When tumors reach about 5 […] in diameter, AG-490 treatment of tumors is initiated and continued daily for 7-10 days. For MOPC tumors, injections of 0.85 mg/day of AG-490 are given intratumorally, supplemented with 0.5 mg/day of AG-490 i.p. For MPC11 tumors, the intratumoral treatment is halved while the i.p. dose remains the same. Control mice receive 50% DMSO vehicle alone in the same volume as the AG-490 treatment group. Recombinant IL-12 is given s.c. at either 100 ng or 200 ng every other day. Tumor growth is monitored daily by measuring two perpendicular tumor diameters with a caliper, and tumor volume was calculated according to the formula V=0.52*a*b(a+b)/2 (a=smallest superficial diameter; b=largest superficial diameter).

PYLKTK [synthetic peptide, unphosphorylated]
IC50, disruption of STAT3 DNA-binding activity (STAT3): ne

QDVHLTQQSRYT (listed as Homo sapiens)
Frequency (out of 100 clones) (Full length STAT3): 13%

O=C1c2c(O)ccc(O)c2C(=O)c2c(NCCNCCO)ccc(NCCNCCO)c21 [mitoxantrone]
apoptosis induced in Bcl-xL overexpressing cells [1]: resistant

N[C@@H](Cc1ccc(N(CCCl)CCCl)cc1)C(=O)O [melphalan]
apoptosis induced in Bcl-xL overexpressing cells [1]: resistant

HY(S/P)PILVYQPSW
Frequency (out of 100 clones) (Full length STAT3): 25%

PY*AKTK (P[pY]AKTK; listed as Homo sapiens) [synthetic peptide, Y* = phosphotyrosine]
IC50, disruption of STAT3 DNA-binding activity (STAT3): ne

SHPWNAQRELSV (listed as Homo sapiens)
Frequency (out of 100 clones) (Full length STAT3): 9%

YPAPQPLVTKTS (listed as Homo sapiens)
Frequency (out of 100 clones) (Full length STAT3): 8%

FSYPLTRAPLNM (listed as Homo sapiens)
Frequency (out of 100 clones) (Full length STAT3): 8%

PFLKTK
IC50, disruption of STAT3 DNA-binding activity (STAT3): ne

Y*LK ([pY]-Leu-Lys; listed as Homo sapiens) [synthetic peptide, Y* = phosphotyrosine]
IC50, disruption of STAT3 DNA-binding activity (STAT3): ne

B1: Fas ligand: Fas ligand (Alexis) (protein, UniProt P48023 130-281, looked up)
Tumor necrosis factor ligand …: QIGHPSPPPEKKELRKVAHLTGKSNSRSMPLEWEDTYGIVLLSGVKYKKGGLVINETGLYFVYSKVYFRGQSCNNLPLSHKVYMRNSKYPQDLVMMEGKMMSYCTTGQMWARSSYLGAVFNLTSADHLYVNVSELSLVNFEESQTFFGLYKL
Fas-mediated cell death (U266 cells): completely resistant

B2: rIL-12: recombinant IL-12 (Genetics Institute) (protein, UniProt P29459 23-219; P29460 23-328, looked up)
Interleukin-12 subunit alpha: RNLPVATPDPGMFPCLHHSQNLLRAVSNMLQKARQTLEFYPCTSEEIDHEDITKDKTSTVEACLPLELTKNESCLNSRETSFITNGSCLASRKTSFMMALCLSSIYEDLKMYQVEFKTMNAKLLMDPKRQIFLDQNMLAVIDELMQALNFNSETVPQKSSLEEPDFYKTKIKLCILLHAFRIRAVTIDRVMSYLNAS
Interleukin-12 subunit beta: IWELKKDVYVVELDWYPDAPGEMVVLTCDTPEEDGITWTLDQSSEVLGSGKTLTIQVKEFGDAGQYTCHKGGEVLSHSLLLLHKKEDGIWSTDILKDQKEPKNKTFLRCEAKNYSGRFTCWWLTTISTDLTFSVKSSRGSSDPQGVTCGAATLSAERVRGDNKEYEYSVECQEDSACPAAEESLPIEVMVDAVHKLKYENYTSSFFIRDIIKPDPPKNLQLKPLKNSRQVEVSWEYPDTWSTPHSYFSLTFCVQVQGKSKREKKDRVFTDKTSATVICRKNASISVRAQDRYYSSSWSEWASVPCS
tumor growth (MPC11 tumors): only slightly inhibits
